In patent US20250049953A1, “TREATMENT AND METHOD FOR INHIBITING LATE NA CURRENT” (THE TRUSTEES OF COLUMBIA UNIVERSITY IN THE CITY OF NEW YORK, priority 2022, published 2025):

Target: T1, NaV1.5 E1784K (Homo sapiens, UniProt Q14524, E1784K)
T1 construct: expressed in transfected cells; host or cells: HEK293 (ATCC CRL1573)
Assay: Multichannel recordings of late Na current, NaV1.5 E1784K
Type: cell-based
Settings: co-expression
From the text: The human NaV1.5 channel corresponds to clone M77235.1 (GenBank) and is subcloned into pGW 1 vector with HindIII and SaII. To facilitate construction of channelopathic mutations in the channel carboxy-terminus, we introduced silent mutations into NaV1.5 to introduce an NruI cutting site near the channel carboxy-terminus (5329-gtggccacg-5337 into 5329-gtCgcGacg-5337). Subsequently, we used overlap-extension PCR and ligated the PCR product into NaV1.5/pGW1 using NruI and XbaI restriction sites (mutations: E1784K, S1904L, IQ/AA, and Q1909R). For generating the ΔKPQ and IFM/IQM mutations, we used overlap-extension PCR and ligated in NaV1.5/pGW1 following restriction digest using KpnI and XbaI site. For generation of NaV1.5 truncations, we PCR amplified relevant segments using a forward primer upstream of the KpnI site and a reverse primer that truncated at the appropriate location (Δ1810 and Δ1885) and included an XbaI site and ligated into NaV1.5/pW1 vector. For LILA/WICW mutations, we used overlap extension and used restriction site AgeI and NheI for subsequent ligation. All segments subjected to PCR amplification were verified by sequencing. For generating human FHF2 splice-variants, we synthesized gene fragments and ligated into pcDNA3 using BamHI/EcoRI restriction sites. Human FHF1A and FHF1B were subcloned into ECFP-N3 vector, FHF2 splice variants and FHF3 were subcloned into pcDNA3. […]

Substance: FixR: minimal 39-amino-acid FHF1A amino-terminal effector domain, MAAAIASSLIRQKRQARESNSDRVSASKRRSSPSKDGRS (SEQ ID NO: 4), expressed as peptide
- change in INa,L: inhibits INa,L
